According to patent publication US20220119534A1 (DRAGONFLY THERAPEUTICS, published 2022):
Where a chain is given by its changes, count along the chain named. Several values for one entry are separate records, joined by “and”; a condition that tells them apart may be missing. Identical values can stand only once.

Experiments:
[1] = target: T1, human NKG2D on effector cells (human, UniProt P26718 1-216); assay: cell-based or functional assay
T1 sequence (looked up): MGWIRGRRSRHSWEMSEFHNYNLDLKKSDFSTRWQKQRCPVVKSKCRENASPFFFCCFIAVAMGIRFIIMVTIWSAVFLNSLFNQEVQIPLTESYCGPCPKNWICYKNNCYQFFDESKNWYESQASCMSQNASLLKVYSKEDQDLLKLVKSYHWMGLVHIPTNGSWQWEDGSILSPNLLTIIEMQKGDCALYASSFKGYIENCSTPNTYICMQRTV

[2] = target: T2, Human CLEC12A expressed on cells (Ba/F3-hCLEC12A, PL21, HL60) (human, UniProt Q5QGZ9 1-265); assay: cell-based or functional assay
T2 sequence: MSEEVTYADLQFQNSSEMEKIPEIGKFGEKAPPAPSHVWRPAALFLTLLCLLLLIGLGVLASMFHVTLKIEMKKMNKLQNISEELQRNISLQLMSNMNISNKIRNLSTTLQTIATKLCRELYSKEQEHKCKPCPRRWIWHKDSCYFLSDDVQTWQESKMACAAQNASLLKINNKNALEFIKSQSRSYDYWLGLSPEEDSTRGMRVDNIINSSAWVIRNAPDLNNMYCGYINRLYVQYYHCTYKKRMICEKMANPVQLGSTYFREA

[3] = target: T2, Human CLEC12A expressed on cells …; assay: cell-based or functional assay; remark: listed apart in the source
[4] = target: T2, Human CLEC12A expressed on cells …; assay: cell-based or functional assay; remark: listed apart in the source
[5] = target: T3, recombinant human CLEC12A-His (human, UniProt Q5QGZ9 65-265); assay: SPR 37C
T3 construct: also called hCLEC12A-His; hCLEC12A
T3 sequence: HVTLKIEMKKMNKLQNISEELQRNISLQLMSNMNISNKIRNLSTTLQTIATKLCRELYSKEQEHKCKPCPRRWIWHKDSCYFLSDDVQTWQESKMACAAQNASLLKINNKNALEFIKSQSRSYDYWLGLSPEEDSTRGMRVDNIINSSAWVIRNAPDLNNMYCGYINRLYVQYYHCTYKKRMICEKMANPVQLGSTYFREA

[6] = target: T4, human CLEC12A expressed on cells (human, UniProt Q5QGZ9 1-265); assay: flow cytometry, hCLEC12A+ Ba/F3
T4 construct: Transduced isogenic cells or endogenous expression on AML cells; also called RMA-hCLEC12A; Ba/F3-hCLEC12A
T4 sequence: T2 sequence

[7] = target: T3, recombinant human CLEC12A-His; assay: SPR 37C, average
[8] = target: T4, human CLEC12A expressed on cells; assay: flow cytometry (gMFI) on CLEC12A+ PL-21 AML cells
[9] = target: T3, recombinant human CLEC12A-His; assay: SPR screening, semi-purified
Method: Binding affinities of the 18 semi-purified TriNKETs for hCLEC12A were assessed by SPR in screening.

[10] = target: T3, recombinant human CLEC12A-His; assay: SPR, CLEC12A binding
[11] = target: T4, human CLEC12A expressed on cells; assay: flow cytometry, hCLEC12A+ Ba/F3; remark: listed apart in the source
[12] = target: T3, recombinant human CLEC12A-His; assay: SPR 37C, average; remark: listed apart in the source
[13] = target: T3, recombinant human CLEC12A-His; assay: SPR 37C; remark: listed apart in the source
[14] = target: T4, human CLEC12A expressed on cells; assay: flow cytometry, HL60
[15] = target: T3, recombinant human CLEC12A-His; assay: flow cytometry of yeast-displayed scFv; x axis PE-A binding of Clec12a-his, y axis FITC-A scFv expression; CLEC12A-His concentration not printed on the sheet

B1: AB0237-Dead-2D (other)
chain: QLQLQESGPGLVKPSETLSLTCTVSGFSLTNYGLHWIRQPPGKCLEWIGVIWSGGKTDYNPSLKSRVTISKDTSKNQFSLKLSSVQAADTAVYYCAKYDYDDSLDYWGQGTLVTVSSGGGGSGGGGSGGGGSGGGGSDIQMTQSPSSLSASVGDRVTITCHASQNINFWLSWYQQKPGKAPKLLIYEASNLHTGVPSRFSGSGSGTRFTLTISSLQPEDIATYYCQQSHSYPLTFGCGTKLEIKGSDKTHTCPPCPAPELLGGPSVFLFPPKPKDTLMISRTPEVTCVVVDVSHEDPEVKFNWYVDGVEVHNAKTKPREEQYNSTYRVVSVLTVLHQDWLNGKEYKCKVSNKALPAPIEKTISKAKGQPREPRVYTLPPCRDELTKNQVSLTCLVKGFYPSDIAVEWESNGQPENNYKTTPPVLVSDGSFTLYSKLTVDKSRWQQGNVFSCSVMHEALHNHYTQKSLSLSPG
heavy: EVQLVESGGGLVKPGGSLRLSCAASGFTFSSYSMNWVRQAPGKGLEWVSSISSSSSYIYYADSVKGRFTISRDNAKNSLYLQMNSLRAEDTAVYYCARGAPIGAAAGWFDPWGQGTLVTVSSASTKGPSVFPLAPSSKSTSGGTAALGCLVKDYFPEPVTVSWNSGALTSGVHTFPAVLQSSGLYSLSSVVTVPSSSLGTQTYICNVNHKPSNTKVDKKVEPKSCDKTHTCPPCPAPELLGGPSVFLFPPKPKDTLMISRTPEVTCVVVDVSHEDPEVKFNWYVDGVEVHNAKTKPREEQYNSTYRVVSVLTVLHQDWLNGKEYKCKVSNKALPAPIEKTISKAKGQPREPQVCTLPPSRDELTENQVSLTCLVKGFYPSDIAVEWESNGQPENNYKTTPPVLDSDGSFFLYSWLTVDKSRWQQGNVFSCSVMHEALHNHYTQKSLSLSPG
light: DIQMTQSPSTLSASVGDRVTITCRASNSISSWLAWYQQKPGKAPKLLIYEASSTKSGVPSRFSGSGSGTEFTLTISSLQPDDFATYYCQQYDDLPTFGGGTKVEIKRTVAAPSVFIFPPSDEQLKSGTASVVCLLNNFYPREAKVQWKVDNALQSGNSQESVTEQDSKDSTYSLSSTLTLSKADYEKHKVYACEVTHQGLSSPVTKSFNRGEC
[1]
  EC50 nM, KHYG-1-CD16aV-mediated lysis of HL-60: 2.5 nM

B2: AB0192 TriNKET (bispecific antibody, human IgG1, kappa)
chain: EVQLVESGGGVVQPGGSLRLSCAASGFTFNAFGMHWVRQAPGKCLEWVAFISSGSTSIYYANTVKGRFTISRDNSKNTLYLQMNSLRAEDTAVYYCARDGYPTGGAMDYWGQGTSVTVSSGGGGSGGGGSGGGGSGGGGSDIQMTQSPSSLSASVGDRVTITCKASQDIYNYLSWFQQKPGKAPKPLIYRANILVSGVPSRFSGSGSGQDYTFTISSLQPEDIATYYCLQFDAFPFTFGCGTKLEIKGSDKTHTCPPCPAPELLGGPSVFLFPPKPKDTLMISRTPEVTCVVVDVSHEDPEVKFNWYVDGVEVHNAKTKPREEQYNSTYRVVSVLTVLHQDWLNGKEYKCKVSNKALPAPIEKTISKAKGQPREPRVYTLPPCRDELTKNQVSLTCLVKGFYPSDIAVEWESNGQPENNYKTTPPVLVSDGSFTLYSKLTVDKSRWQQGNVFSCSVMHEALHNHYTQKSLSLSPG
heavy: B1 heavy
light: DIQMTQSPSSVSASVGDRVTITCRASQGISSWLAWYQQKPGKAPKLLIYAASSLQSGVPSRFSGSGSGTDFTLTISSLQPEDFATYYCQQGVSFPRTFGGGTKVEIKRTVAAPSVFIFPPSDEQLKSGTASVVCLLNNFYPREAKVQWKVDNALQSGNSQESVTEQDSKDSTYSLSSTLTLSKADYEKHKVYACEVTHQGLSSPVTKSFNRGEC
[2]
  EC50, rested NK cell lysis of PL21 cells (mean of six donors): 0.61 nM
[3]
  EC50, rested NK cells lysis of HL60 cells (mean of four donors): 0.3 nM
[4]
  % Max, ADCP activity of M0 macrophages against PL21 cells: 15%
  EC50, ADCP activity of M0 macrophages against PL21 cells: 0.03 nM

B3: F3'-1295 TriNKET (other)
chain: B1 chain with A180I
heavy: B1 heavy
light: B2 light
[5]
  Kd: 1.43 nM and 1.42 nM and 1.44 nM
  koff: 0.000587 s⁻¹ and 0.000589 s⁻¹ and 0.000605 s⁻¹ and 0.000596 s⁻¹
  kon: 411000 M⁻¹ s⁻¹ and 415000 M⁻¹ s⁻¹ and 419000 M⁻¹ s⁻¹ and 416000 M⁻¹ s⁻¹
[6]
  EC50: 26.1 nM
  Max MFI: 48000 MFI
[7]
  Kd: 1.43 nM
  koff: 0.000594 s⁻¹
  kon: 415000 M⁻¹ s⁻¹
[8]
  EC50: 11.7 nM
[9]
  Kd: 2.94 nM
  koff: 0.00153 s⁻¹
  kon: 520000 M⁻¹ s⁻¹
[10]
  Kd: 1.2 nM

B4: AB0010 (other)
chain: DIQMTQSPSSVSASVGDRVTITCRASQGISSWLAWYQQKPGKAPKLLIYAASSLQSGVPSRFSGSGSGTDFTLTISSLQPEDFATYYCQQGVSFPRTFGGGTKVEIKGGGGSGGGGSGGGGSGGGGSEVQLVESGGGLVKPGGSLRLSCAASGFTFSSYSMNWVRQAPGKGLEWVSSISSSSSYIYYADSVKGRFTISRDNAKNSLYLQMNSLRAEDTAVYYCARGAPIGAAAGWFDPWGQGTLVTVSSGSDKTHTCPPCPAPELLGGPSVFLFPPKPKDTLMISRTPEVTCVVVDVSHEDPEVKFNWYVDGVEVHNAKTKPREEQYNSTYRVVSVLTVLHQDWLNGKEYKCKVSNKALPAPIEKTISKAKGQPREPRVYTLPPCRDELTKNQVSLTCLVKGFYPSDIAVEWESNGQPENNYKTTPPVLVSDGSFTLYSKLTVDKSRWQQGNVFSCSVMHEALHNHYTQKSLSLSPG
heavy: QLQLQESGPGLVKPSETLSLTCTVSGFSLTNYGLHWIRQPPGKGLEWIGVIWSGGKTDYNPSLKSRVTISKDTSKNQFSLKLSSVQAADTAVYYCAKYDYDDSLDYWGQGTLVTVSSASTKGPSVFPLAPSSKSTSGGTAALGCLVKDYFPEPVTVSWNSGALTSGVHTFPAVLQSSGLYSLSSVVTVPSSSLGTQTYICNVNHKPSNTKVDKKVEPKSCDKTHTCPPCPAPELLGGPSVFLFPPKPKDTLMISRTPEVTCVVVDVSHEDPEVKFNWYVDGVEVHNAKTKPREEQYNSTYRVVSVLTVLHQDWLNGKEYKCKVSNKALPAPIEKTISKAKGQPREPQVCTLPPSRDELTENQVSLTCLVKGFYPSDIAVEWESNGQPENNYKTTPPVLDSDGSFFLYSWLTVDKSRWQQGNVFSCSVMHEALHNHYTQKSLSLSPG
light: DIQMTQSPSSLSASVGDRVTITCHASQNINFWLSWYQQKPGKAPKLLIYEASNLHTGVPSRFSGSGSGTRFTLTISSLQPEDIATYYCQQSHSYPLTFGGGTKLEIKRTVAAPSVFIFPPSDEQLKSGTASVVCLLNNFYPREAKVQWKVDNALQSGNSQESVTEQDSKDSTYSLSSTLTLSKADYEKHKVYACEVTHQGLSSPVTKSFNRGEC
notes: NKG2D scFv-Fc, CLEC12A Fab-Fc
[11]
  EC50: 6.13 nM
[12]
  Kd: 0.74 nM
  koff: 0.000525 s⁻¹
  kon: 710000 M⁻¹ s⁻¹
[13]
  Kd: 0.71 nM and 0.77 nM
  koff: 0.000508 s⁻¹ and 0.000541 s⁻¹
  kon: 715000 M⁻¹ s⁻¹ and 704000 M⁻¹ s⁻¹
[14]
  EC50: 4.2 nM

B5: scFv-1602 displayed on yeast (scFv)
scFv: QLQLQESGPGLVKPSETLSLTCTVSGFSLTNYGLHWIRQPPGKCLEWIGVIWSGGKTDYNPSLKSRVTISKDTSKNQFSLKLSSVQAADTAVYYCAKYDYDDSLDYWGQGTLVTVSSGGGGSGGGGSGGGGSGGGGSDIQMTQSPSSLSASVGDRVTITCHASQNINFWLSWYQQKPGKAPKLLIYEASNLHTGVPSRFSGSGSGTRFTLTISSLQPEDIATYYCQQSHSYPLTFGCGTKLEIK
[15]
  binding result: binds
